Experiment [1] deals with T1, Biotin PSGL-1(42-62) D52A peptide (C-terminal Lys-biotin).
T1 peptide: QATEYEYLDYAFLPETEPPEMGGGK
Put plainly: ELISA, streptavidin-bound Ala peptide. A general note: An ELISA detects its analyte on a solid surface through an enzyme-linked reagent.

Experiment [2] concerns the target T2, Biotin PSGL-1(42-62) P55A peptide (C-terminal Lys-biotin).
T2 peptide: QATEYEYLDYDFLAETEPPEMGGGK
Put plainly: ELISA, streptavidin-bound Ala peptide.

The target in experiment [3] is T3, Human complement C4 protein (Millipore Sigma, Cat. 204886) (human, UniProt P0C0L4 20-675; P0C0L4 680-1446; P0C0L4 1454-1744, limits assumed, natural sulfotyrosines).
T3 construct: mature
Kind of experiment: ELISA, 50 nM mAb on plate-bound protein. The procedure:
Recombinant PSGL-1-hFc1 chimera protein consisting of PSGL-1's extracellular domain (ECD) served as a positive control. […] Primary antibody was added (25 ul per well) in duplicate at 50 nM in assay buffer (blocking buffer containing 0.05% Tween®20) into test and control (just blocked) wells and the plate incubated for 45 min at 37° C.

In general, EC50 refers to the concentration giving half of the maximal effect. A lower EC50 goes with higher potency in that assay.

T3 sequence (P0C0L4 20-675 limits assumed, form in doubt, chain 1 of 3): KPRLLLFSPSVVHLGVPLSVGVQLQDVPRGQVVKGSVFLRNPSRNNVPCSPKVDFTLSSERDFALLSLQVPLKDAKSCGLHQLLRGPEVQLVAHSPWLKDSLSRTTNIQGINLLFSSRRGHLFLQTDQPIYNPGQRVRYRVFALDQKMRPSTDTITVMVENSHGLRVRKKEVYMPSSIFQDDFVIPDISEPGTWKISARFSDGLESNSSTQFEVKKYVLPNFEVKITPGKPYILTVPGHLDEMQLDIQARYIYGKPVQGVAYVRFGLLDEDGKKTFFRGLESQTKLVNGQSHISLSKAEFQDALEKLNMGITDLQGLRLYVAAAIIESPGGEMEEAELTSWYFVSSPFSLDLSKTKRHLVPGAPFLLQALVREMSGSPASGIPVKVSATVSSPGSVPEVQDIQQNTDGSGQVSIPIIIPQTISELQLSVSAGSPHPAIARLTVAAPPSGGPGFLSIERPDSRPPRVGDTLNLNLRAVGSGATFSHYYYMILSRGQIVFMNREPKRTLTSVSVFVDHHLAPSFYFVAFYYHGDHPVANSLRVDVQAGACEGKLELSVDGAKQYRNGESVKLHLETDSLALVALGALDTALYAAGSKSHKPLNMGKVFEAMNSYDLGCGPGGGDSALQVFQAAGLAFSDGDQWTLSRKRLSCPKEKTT
T3 sequence (P0C0L4 680-1446 limits assumed, form in doubt, chain 2 of 3): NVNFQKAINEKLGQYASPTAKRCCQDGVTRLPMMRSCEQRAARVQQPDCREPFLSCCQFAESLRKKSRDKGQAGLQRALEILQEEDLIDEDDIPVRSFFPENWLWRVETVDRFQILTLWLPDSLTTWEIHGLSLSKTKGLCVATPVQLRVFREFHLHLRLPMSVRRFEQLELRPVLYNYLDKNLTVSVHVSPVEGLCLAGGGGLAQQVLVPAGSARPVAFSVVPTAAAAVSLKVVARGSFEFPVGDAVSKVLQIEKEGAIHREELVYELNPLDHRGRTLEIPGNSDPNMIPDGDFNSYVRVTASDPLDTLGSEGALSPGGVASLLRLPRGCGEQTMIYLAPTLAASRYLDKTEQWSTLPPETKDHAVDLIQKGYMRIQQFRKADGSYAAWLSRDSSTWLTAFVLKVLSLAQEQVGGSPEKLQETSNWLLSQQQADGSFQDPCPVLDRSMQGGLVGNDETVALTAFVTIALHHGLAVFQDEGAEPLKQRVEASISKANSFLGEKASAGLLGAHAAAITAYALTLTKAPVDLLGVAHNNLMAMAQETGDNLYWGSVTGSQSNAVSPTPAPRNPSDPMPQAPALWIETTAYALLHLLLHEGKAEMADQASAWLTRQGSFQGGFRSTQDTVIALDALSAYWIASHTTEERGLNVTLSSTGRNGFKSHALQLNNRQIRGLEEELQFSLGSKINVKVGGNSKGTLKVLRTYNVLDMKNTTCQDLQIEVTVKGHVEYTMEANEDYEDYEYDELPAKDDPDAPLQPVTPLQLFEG
T3 sequence (P0C0L4 1454-1744 limits assumed, form in doubt, chain 3 of 3): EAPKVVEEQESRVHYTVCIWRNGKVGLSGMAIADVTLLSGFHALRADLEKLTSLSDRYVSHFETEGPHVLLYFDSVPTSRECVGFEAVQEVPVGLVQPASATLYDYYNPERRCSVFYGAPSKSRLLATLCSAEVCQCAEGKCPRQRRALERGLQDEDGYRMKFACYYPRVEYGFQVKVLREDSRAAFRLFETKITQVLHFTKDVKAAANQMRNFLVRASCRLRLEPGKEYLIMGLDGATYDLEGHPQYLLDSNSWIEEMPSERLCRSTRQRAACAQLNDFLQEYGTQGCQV

B1: 43B6 (antibody, V domains shown)
VH: EVQLQQSGPDLVKPGALVKISCKASGYSFTAYYIHWVKQSHGKSLEWIGRVNPNTGGTSYNPKFKGKAILNVDKSSSTAYMELRSLTSEDSAVYYCARSGSPYYRYDDWGQGTTLTVSS
VL: ENVLTQSPAIMSASPGEKVTMTCRASSTVNSTYLHWFQQKSGASPKLWIYGSSNLASGVPARFSGSGSGTSYSLTISSVEAEDAATYYCQQYSGYPLTFGAGTTLELK
notes: Control anti-PSGL-1 mAb, recombinant; only variable domains given; also called 43B3
Turning to B1, the binding result in experiment [1] is given as “no binding”. In experiment [2], the EC50 is 1.8 nM.

B2: 19I01 (antibody, V domains shown)
VH: EVQLVESGGGLVKPGGSRKLSCAASGFTFSDYGMHWVRQAPEKGLEWVAYISSGSSTIYYADTVKGRFTISRDNAKNTLFLQMTSLRSEDTAMYYCARGVDGYWGQGTTLTVSS
VL: DVVMTQTPLSLPVSLGDQASISCRSSQSLVHSNGNTYLHWYLQKPGQSPKFLIYKVSNRFSGVPDRFSGSGSGTDFTLKISRVEAEDLGVYFCSQTTHVPLTFGAGTKLELK
notes: From mouse immunisation; only variable domains given; also called 19101
B2: in experiment [3], the “% of binding to PSGL-1(ECD)-hFc1” value was ≤ 10%. In addition, the EC50 is 3.18 nM in experiment [1] and 8.21 nM in experiment [2].

B3: 9F9 (antibody, V domains shown)
VH: EVQLVETGGGLVQPKGSLKLSCAASGFTFNTNAMNWVRQAPGKGLEWVARIRSKSNNYATYYADSVKDRFTISRDDTQSMIYLQMNNLKTEDTGMYYCVRGGSYWYFDVWGAGTTVTVSS
VL: DVLMTQTPLSLPVSLGDQASISCRSSQSIVNSNGNTYLEWYLQKPGQSPKLLIYKVSNRFSGVPDRFSGSGSGTDFTLKISRVEAEDLGVYYCFQGSHVPWTFGGGTKLEIK
notes: Control anti-PSGL-1 mAb, recombinant; only variable domains given; also called 9F6
For B3, the binding result in experiment [1] is reported as “no binding”. Further, the EC50 in experiment [2] is > 10 nM.

(Values after US20220396632A1 (VERSEAU THERAPEUTICS, published 2022).)
